Results as given in the supplement of paper PMC9170038.

Test system: MS2 coat protein
Experiment: apparent KD of MS2 coat protein; higher = weaker reporter binding
Settings: Eterna round: R107
Experimental: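 RNA-MaP round R107: designed RNA switches with theophylline, tryptophan, arginine or FMN aptamers are transcribed on-chip within common flanks. They are titrated with SNAP-549-labelled MS2 coat protein in RNA-MaP buffer (100 mM Tris pH 7.5, 80 mM KCl, 4 mM MgCl2), without ligand or with the indicated ligand. Median apparent KD per design.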

[1] = input ligand: theophylline 20 uM
[2] = input ligand: theophylline 2 mM
[3] = input ligand: tryptophan 2.4 mM

Sequence	apparent KD of MS2 coat protein (input ligand: arginine 13.2 mM) [nM]	apparent KD of MS2 coat protein (input ligand: none) [nM]	apparent KD of MS2 coat protein [1] [nM]	apparent KD of MS2 coat protein [2] [nM]	apparent KD of MS2 coat protein [3] [nM]
ACAUGAGGAUCACCCAUGUGAAGGCACGAUACCAGCUGAUCCCGUGGCCCUUGGCAGCGUCCGGUGUGGUCCGGCGGGUGGGACG [bbvmullin]	25.8	29	75.4	50.3	24.4
ACAUGAGGAUCACCCAUGUUCCUCGCCGAUACCAGUGAAGAAGAACGCCCUUGGCAGCGGAAAGAAUAUUUUGGAGAUGAGGUAU [6.W]	120		219		165
ACAUGAGGAUCACCCAUGUUCCUCGCCGAUACCAGUGAAGAAGAACGCCCUUGGCAGCGGAAAGAGUAUUUUGGAGAUGAGGUAC [6.X]	72.5		134		124
ACAUGAGGGAUGGAUACCAGCGACAUGAGGAUCACCCAUGUAUGAGGAUCAGCCAUGUUAUGCCCUUGGCAGCCACGAACAUGAG [ACFMULLIN]	26.2	35.6	103	235	37.2
ACAUGGGUCUGAAGGAGCGCGAUAACAUGAGGAUCACCCAUGUAAAAUGGAACAUGAUAAUCGCAGGUAGGUCGCAGUAAAACCC [Same State Arginine B GF 11]	133	303	344	704	365
ACAUUUAACUGAAGGAGCGUGAAUAACAUGAGGAUCACCCAUGUAACUUAGAUGCUUAUUUCACAGGUAGGUCGCAGACUAAUGA [JR_ExcArginiB_Sub010]	10.4	10.3	13.7	10.3	10.9
ACAUUUAACUGAAGGAGCGUGAAUAACAUGAGGAUCACCCAUGUAACUUAGAUUCUUAUAUCACAGGUAGGUCGCAGACUAAUGA [JR_ExcArginiB_Sub012]	24.9	17	25.7	21.5	19
ACAUUUAACUGAAGGAGCGUGAUAAACAUGAGGAUCACCCAUGUACCAAAGAUUUUCAGAUCACAGGUAGGUCGCAGACUAAUGA [JR_ExcArginiB_Sub015]	12.8	11.7	16.7	12.6	13.3
ACCGCAUCCGUAUAGGAUGCGGCCCAUGAAGGAGCGUGGGAAACCACAGGUAGGUCGCAUGACAUGAGGAUCACCCAUGUUUAUU [Matrix]	27.8	44.2	52.7	40.9	33.9
ACCGCAUCCGUAUAGGAUGCGGCCCAUGAAGGAGCGUGGGAAACCACAGGUAGGUCGCAUGGACAUGAGGAUCACCCAUGUUAUU [Inception]	43.7	59.8	79.3	62.7	48.3
ACGAACGCACCUGAGGAACACCCAGGUGAUACCAGCCUGGAAACAGGCCCUUGGCAGCACCUAAAAUAAAGGUAACGUUCGAAUA [TheoAX8 #MicroSwitchBubble #AlternativeMS2]	171	126	231	180	98.9
ACGACGCAUAGUGAUACCAGCACAACAUGAGGAUCACCCAUGUCACAUAUGUUGUAAUAAUGCCCUUGGCAGCACUAUGCGUCAG [SSTheo B #2]	34.6		83.3		50.8
ACGGAUCGGAAACGAUCCGCGGCGCGGGUGCGAGGACCGGUACGGCCGCCACUCGGGUAACAUGAGGAUCACCCAUGUCCGAUUU [ETA NP+V+V2 #12]	65.7		101	129	
ACGUCCGGAUUGAUCGUGGGCAUGGUCGAUACCAGUAUUUUAAUCUACCCUUGGCAGCGACAUGAGGAUCACCCAUGUGCGAUGA [XTheo A #19]	16.1		21.5		16.2
ACUAGAGGUGGAAGGAGCGGGAGACAUGAGGAUCACCCAUGUGAAGUUUCGAGAGGAUCAUCCCAGGUAGGUCGCCAUGUCGAAA [vvbvmullin]	35.3	27.4	46.9	61.6	43.7
AGACAUGAGGAUCACCCAUGUAGCACGGAUACCAGAUCCAGAUUUAUCCCUUGGCAGCUGUGGUACAGCGUUGCAACGCUCCUAG [Exclusion - Theophylline A (Freestyle 16)]	17.6		23.2		17.1
